Laboratory results taken from patent publication US20220195012A1 (NATIONAL CENTRE FOR CELL SCIENCE, published 2022).
Where “and” joins values, the source holds several entries; their conditions need not be identical. Identical values can stand only once.

Key:
Assay in all cases: cell-based or functional assay
[1] = target: C4b (UniProt P0C0L4 757-1446; P0C0L4 20-675; P0C0L4 1454-1744, in the SPR assays biotinylated at the free -SH group with EZ-Link PEO-maleimide-activated biotin)
[2] = target: C3b (UniProt P01024 23-667; P01024 749-1663, in the SPR assays biotinylated at the free -SH group with EZ-Link PEO-maleimide-activated biotin)
[3] = target: T1, AP C3-convertase (C3bBb) (UniProt P01024 23-667; P01024 749-1663; P00751 260-764)
[4] = target: T2, CP C3-convertase (C4b2a) (UniProt P0C0L4 757-1446; P0C0L4 20-675; P0C0L4 1454-1744; P06681 244-752)
[5] = target: T1, AP C3-convertase (C3bBb); remark: listed apart in the source
[6] = target: T2, CP C3-convertase (C4b2a); remark: listed apart in the source

C3b, sequence (P01024 23-667 limits assumed, chain 1 of 2): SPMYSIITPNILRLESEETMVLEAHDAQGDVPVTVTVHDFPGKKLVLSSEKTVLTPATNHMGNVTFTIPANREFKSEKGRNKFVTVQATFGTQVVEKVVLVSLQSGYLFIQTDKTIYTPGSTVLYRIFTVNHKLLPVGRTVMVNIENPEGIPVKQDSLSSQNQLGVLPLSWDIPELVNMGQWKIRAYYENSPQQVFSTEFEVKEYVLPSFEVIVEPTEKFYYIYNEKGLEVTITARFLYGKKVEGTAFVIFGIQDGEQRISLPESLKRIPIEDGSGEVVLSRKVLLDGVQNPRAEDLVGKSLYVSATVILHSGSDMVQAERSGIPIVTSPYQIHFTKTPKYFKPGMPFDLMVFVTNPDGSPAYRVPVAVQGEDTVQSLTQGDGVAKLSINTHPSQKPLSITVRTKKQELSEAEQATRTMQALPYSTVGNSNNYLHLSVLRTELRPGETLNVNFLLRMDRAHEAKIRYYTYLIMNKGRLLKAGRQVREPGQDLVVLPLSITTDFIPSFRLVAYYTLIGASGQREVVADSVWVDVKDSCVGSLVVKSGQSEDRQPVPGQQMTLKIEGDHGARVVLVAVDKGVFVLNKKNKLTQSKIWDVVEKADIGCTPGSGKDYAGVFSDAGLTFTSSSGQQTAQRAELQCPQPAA
C3b, sequence (P01024 749-1663 limits assumed, chain 2 of 2): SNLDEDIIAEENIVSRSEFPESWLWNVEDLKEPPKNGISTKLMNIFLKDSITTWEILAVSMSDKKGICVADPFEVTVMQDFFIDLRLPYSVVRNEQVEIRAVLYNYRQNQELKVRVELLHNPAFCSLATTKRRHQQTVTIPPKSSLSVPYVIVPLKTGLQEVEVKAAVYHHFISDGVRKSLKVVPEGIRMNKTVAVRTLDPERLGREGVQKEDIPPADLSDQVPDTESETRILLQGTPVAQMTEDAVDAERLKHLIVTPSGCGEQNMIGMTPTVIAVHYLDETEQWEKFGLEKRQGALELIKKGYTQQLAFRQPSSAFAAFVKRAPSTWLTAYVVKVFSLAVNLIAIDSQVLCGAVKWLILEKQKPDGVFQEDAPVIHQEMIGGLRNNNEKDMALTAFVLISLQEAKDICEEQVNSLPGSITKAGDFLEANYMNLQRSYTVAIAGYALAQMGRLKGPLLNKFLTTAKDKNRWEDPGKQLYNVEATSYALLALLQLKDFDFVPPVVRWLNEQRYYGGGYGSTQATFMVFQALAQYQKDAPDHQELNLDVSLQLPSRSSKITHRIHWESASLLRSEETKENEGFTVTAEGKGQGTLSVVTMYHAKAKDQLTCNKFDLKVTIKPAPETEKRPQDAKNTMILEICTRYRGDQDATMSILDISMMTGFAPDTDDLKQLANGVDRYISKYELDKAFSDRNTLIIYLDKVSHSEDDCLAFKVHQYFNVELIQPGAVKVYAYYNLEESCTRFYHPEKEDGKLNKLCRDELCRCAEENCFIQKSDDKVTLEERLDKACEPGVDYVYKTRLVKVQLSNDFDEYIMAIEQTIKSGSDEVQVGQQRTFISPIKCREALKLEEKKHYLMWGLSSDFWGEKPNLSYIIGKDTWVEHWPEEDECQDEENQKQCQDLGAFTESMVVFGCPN
T1 sequence (P01024 23-667 limits assumed, chain 1 of 3): as the sequence (P01024 23-667 limits assumed, chain 1 of 2) above
T1 sequence (P01024 749-1663 limits assumed, chain 2 of 3): as the sequence (P01024 749-1663 limits assumed, chain 2 of 2) above
T1 sequence (P00751 260-764 limits assumed, chain 3 of 3): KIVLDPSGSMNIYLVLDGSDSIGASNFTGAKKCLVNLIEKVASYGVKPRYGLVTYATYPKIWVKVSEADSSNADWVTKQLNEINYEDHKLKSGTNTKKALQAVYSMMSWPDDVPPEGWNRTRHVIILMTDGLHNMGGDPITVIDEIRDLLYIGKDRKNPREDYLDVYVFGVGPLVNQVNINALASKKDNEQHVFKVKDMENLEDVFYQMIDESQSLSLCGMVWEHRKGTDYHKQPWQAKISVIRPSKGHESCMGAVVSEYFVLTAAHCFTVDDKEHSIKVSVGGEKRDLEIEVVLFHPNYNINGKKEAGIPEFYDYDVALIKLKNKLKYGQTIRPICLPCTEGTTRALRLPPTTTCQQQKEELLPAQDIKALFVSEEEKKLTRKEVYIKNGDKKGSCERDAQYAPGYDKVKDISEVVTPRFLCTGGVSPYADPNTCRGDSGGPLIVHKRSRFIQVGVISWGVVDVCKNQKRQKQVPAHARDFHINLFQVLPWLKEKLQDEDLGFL
T2 sequence (P0C0L4 757-1446 limits assumed, chain 1 of 4): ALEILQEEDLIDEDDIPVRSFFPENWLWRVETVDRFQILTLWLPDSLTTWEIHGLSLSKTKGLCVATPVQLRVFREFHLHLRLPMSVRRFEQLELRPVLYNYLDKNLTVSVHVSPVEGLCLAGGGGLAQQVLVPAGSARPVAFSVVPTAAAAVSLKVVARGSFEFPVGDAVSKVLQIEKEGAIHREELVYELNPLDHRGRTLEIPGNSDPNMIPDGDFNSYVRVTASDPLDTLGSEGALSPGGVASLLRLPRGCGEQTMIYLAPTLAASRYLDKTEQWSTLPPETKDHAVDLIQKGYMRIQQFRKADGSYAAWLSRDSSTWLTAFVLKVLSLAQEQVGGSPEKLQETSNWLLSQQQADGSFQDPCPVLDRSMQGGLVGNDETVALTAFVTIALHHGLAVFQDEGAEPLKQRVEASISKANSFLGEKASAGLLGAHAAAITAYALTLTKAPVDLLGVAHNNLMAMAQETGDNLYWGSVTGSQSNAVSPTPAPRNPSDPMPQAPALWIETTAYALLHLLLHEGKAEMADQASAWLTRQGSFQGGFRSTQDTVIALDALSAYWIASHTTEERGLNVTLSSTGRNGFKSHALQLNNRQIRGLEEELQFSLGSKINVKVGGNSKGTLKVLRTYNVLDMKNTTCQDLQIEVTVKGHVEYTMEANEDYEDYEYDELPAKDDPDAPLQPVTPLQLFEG
T2 sequence (P0C0L4 20-675 limits assumed, chain 2 of 4): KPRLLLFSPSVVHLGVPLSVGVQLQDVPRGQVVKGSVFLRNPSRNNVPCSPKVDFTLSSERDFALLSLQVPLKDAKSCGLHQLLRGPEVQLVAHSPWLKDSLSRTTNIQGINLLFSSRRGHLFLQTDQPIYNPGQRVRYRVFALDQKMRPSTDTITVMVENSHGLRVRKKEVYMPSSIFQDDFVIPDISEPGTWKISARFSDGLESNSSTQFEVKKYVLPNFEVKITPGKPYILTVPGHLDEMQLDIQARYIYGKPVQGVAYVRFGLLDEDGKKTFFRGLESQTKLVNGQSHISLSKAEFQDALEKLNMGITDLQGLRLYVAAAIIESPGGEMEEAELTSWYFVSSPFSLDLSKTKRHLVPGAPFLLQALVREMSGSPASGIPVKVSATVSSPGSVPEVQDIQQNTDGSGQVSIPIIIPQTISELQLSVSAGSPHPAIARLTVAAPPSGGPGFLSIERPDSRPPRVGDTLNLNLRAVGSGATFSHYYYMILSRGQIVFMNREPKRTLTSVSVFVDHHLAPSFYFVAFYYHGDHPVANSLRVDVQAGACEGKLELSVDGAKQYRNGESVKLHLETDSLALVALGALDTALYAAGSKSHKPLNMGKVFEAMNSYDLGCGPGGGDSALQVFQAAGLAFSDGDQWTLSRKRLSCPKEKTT
T2 sequence (P0C0L4 1454-1744 limits assumed, chain 3 of 4): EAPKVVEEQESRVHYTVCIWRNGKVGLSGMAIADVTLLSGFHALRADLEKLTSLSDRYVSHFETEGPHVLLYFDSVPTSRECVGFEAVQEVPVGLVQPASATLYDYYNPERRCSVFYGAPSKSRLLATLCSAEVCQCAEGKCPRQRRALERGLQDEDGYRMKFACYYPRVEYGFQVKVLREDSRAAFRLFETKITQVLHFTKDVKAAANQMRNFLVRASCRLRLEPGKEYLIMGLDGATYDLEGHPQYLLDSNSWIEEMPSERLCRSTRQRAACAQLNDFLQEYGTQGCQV
T2 sequence (P06681 244-752 limits assumed, chain 4 of 4): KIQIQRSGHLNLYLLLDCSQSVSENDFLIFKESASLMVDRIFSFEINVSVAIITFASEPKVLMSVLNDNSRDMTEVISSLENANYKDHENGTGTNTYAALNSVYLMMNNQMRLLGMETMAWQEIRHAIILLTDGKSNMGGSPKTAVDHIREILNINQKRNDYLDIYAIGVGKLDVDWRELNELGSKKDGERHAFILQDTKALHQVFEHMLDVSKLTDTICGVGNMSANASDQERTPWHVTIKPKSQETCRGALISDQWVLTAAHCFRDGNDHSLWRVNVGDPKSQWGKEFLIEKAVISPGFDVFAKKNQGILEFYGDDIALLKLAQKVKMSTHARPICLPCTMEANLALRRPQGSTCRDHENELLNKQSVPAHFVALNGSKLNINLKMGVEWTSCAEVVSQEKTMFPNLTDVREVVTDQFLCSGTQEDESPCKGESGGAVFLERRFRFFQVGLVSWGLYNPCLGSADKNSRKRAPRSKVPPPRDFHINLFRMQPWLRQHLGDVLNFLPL
C4b, sequence (P0C0L4 757-1446 limits assumed, chain 1 of 3): as the sequence (P0C0L4 757-1446 limits assumed, chain 1 of 4) above
C4b, sequence (P0C0L4 20-675 limits assumed, chain 2 of 3): as the sequence (P0C0L4 20-675 limits assumed, chain 2 of 4) above
C4b, sequence (P0C0L4 1454-1744 limits assumed, chain 3 of 3): as the sequence (P0C0L4 1454-1744 limits assumed, chain 3 of 4) above

AP-DAA IC50 [3] | Relative CP-DAA [4] | Relative AP-DAA [3] | CP-DAA IC50 [4] | Binder | also measured
– | – | – | – | Human MCP (M1-M4), membrane cofactor protein (other) CEEPPTFEAMELIGKPKPYYEIGERVDYKCKKGYFYIPPLATHTICDRNHTWLPVSDDACYRETCPYIRDPLNGQAVPANGTYEFGYQMHFICNEGYYLIGEEILYCELKGSVAIWSGKPPICEKVLCTPPPKIKNGKHTFSEVEVFEYLDAVTYSCDPAPGPDPFSLIGESTIYCGDNSVWSRAAPECKVVKCRFPVVENGKQISGFGKKFYYKATVMFECDKGFYLDGSDTIVCDSNSTWDPPVPKCLKVL | Relative C4b CFA [1]: 1; Relative C3b CFA [2]: 1
0.0031 µM and 0.0023 µM and 0.0011 µM | 1 | – | – | Human DAF (D1-D4), decay-accelerating factor (other) CGLPPDVPNAQPALEGRTSFPEDTVITYKCEESFVKIPGEKDSVICLKGSQWSDIEEFCNRSCEVPTRLNSASLKQPYITQNYFPVGTVVEYECRPGYRREPSLSPKLTCLQNLKWSTAVEFCKKKSCPNPGEIRNGQIDVPGGILFGATISFSCNTGYKLFGSTSSFCLISGSSVQWSDPLPECREIYCPAPPQIDNGIIQGERDHYGYRQSVTYACNKGFTMIGEHSIYCTVNNDEGEWSGPPPECRGKS | –
> 0.019 µM | 0.03 | < 0.1 | 457 µM | D2M2-4 (DAF-MCP chimera with the DAF D2-D3 linker) (other) CEVPTRLNSASLKQPYITQNYFPVGTVVEYECRPGYRREPSLSPKLTCLQNLKWSTAVEFCKKKSCPYIRDPLNGQAVPANGTYEFGYQMHFICNEGYYLIGEEILYCELKGSVAIWSGKPPICEKVLCTPPPKIKNGKHTFSEVEVFEYLDAVTYSCDPAPGPDPFSLIGESTIYCGDNSVWSRAAPECKVVKCRFPVVENGKQISGFGKKFYYKATVMFECDKGFYLDGSDTIVCDSNSTWDPPVPKCLKVL | –
– | – | – | – | D2M2-4 (I134A) (other) CEVPTRLNSASLKQPYITQNYFPVGTVVEYECRPGYRREPSLSPKLTCLQNLKWSTAVEFCKKKSCPYIRDPLNGQAVPANGTYEFGYQMHFICNEGYYLAGEEILYCELKGSVAIWSGKPPICEKVLCTPPPKIKNGKHTFSEVEVFEYLDAVTYSCDPAPGPDPFSLIGESTIYCGDNSVWSRAAPECKVVKCRFPVVENGKQISGFGKKFYYKATVMFECDKGFYLDGSDTIVCDSNSTWDPPVPKCLKVL | AP-DAA, fold gain compared to D2M2-4 [5]: 6.7 fold; CP-DAA, fold increase [6]: ~2 fold
– | – | – | – | D2M2-4 (L161K) (other) CEVPTRLNSASLKQPYITQNYFPVGTVVEYECRPGYRREPSLSPKLTCLQNLKWSTAVEFCKKKSCPYIRDPLNGQAVPANGTYEFGYQMHFICNEGYYLIGEEILYCELKGSVAIWSGKPPICEKVKCTPPPKIKNGKHTFSEVEVFEYLDAVTYSCDPAPGPDPFSLIGESTIYCGDNSVWSRAAPECKVVKCRFPVVENGKQISGFGKKFYYKATVMFECDKGFYLDGSDTIVCDSNSTWDPPVPKCLKVL | AP-DAA, fold gain compared to D2M2-4 [5]: 3.4 fold; CP-DAA, fold increase [6]: ~2 fold
> 0.01 µM | < 0.01 | < 0.1 | > 1000 µM | D2M2-4 (ML) (DAF-MCP chimera with the MCP M1-M2 linker YRET) (other) CEVPTRLNSASLKQPYITQNYFPVGTVVEYECRPGYRREPSLSPKLTCLQNLKWSTAVEFCYRETCPYIRDPLNGQAVPANGTYEFGYQMHFICNEGYYLIGEEILYCELKGSVAIWSGKPPICEKVLCTPPPKIKNGKHTFSEVEVFEYLDAVTYSCDPAPGPDPFSLIGESTIYCGDNSVWSRAAPECKVVKCRFPVVENGKQISGFGKKFYYKATVMFECDKGFYLDGSDTIVCDSNSTWDPPVPKCLKVL | –
– | – | – | – | D2M2-4 (E136Q) (D2) (other) CEVPTRLNSASLKQPYITQNYFPVGTVVEYECRPGYRRQPSLSPKLTCLQNLKWSTAVEFCKKKSCPYIRDPLNGQAVPANGTYEFGYQMHFICNEGYYLIGEEILYCELKGSVAIWSGKPPICEKVLCTPPPKIKNGKHTFSEVEVFEYLDAVTYSCDPAPGPDPFSLIGESTIYCGDNSVWSRAAPECKVVKCRFPVVENGKQISGFGKKFYYKATVMFECDKGFYLDGSDTIVCDSNSTWDPPVPKCLKVL | AP-DAA, fold increase compared to D2M2-4 [5]: 5.6 fold
– | – | – | – | D2M2-4 (Y101N) (other) CEVPTRLNSASLKQPYITQNYFPVGTVVEYECRPGYRREPSLSPKLTCLQNLKWSTAVEFCKKKSCPNIRDPLNGQAVPANGTYEFGYQMHFICNEGYYLIGEEILYCELKGSVAIWSGKPPICEKVLCTPPPKIKNGKHTFSEVEVFEYLDAVTYSCDPAPGPDPFSLIGESTIYCGDNSVWSRAAPECKVVKCRFPVVENGKQISGFGKKFYYKATVMFECDKGFYLDGSDTIVCDSNSTWDPPVPKCLKVL | AP-DAA, fold increase compared to D2M2-4 [5]: 7.2 fold
> 0.01 µM | 0.4 | < 0.3 | 39.3 µM | D2D3M3M4 (Multi-4) (other) CEVPTRLNSASLKQPYITQNYFPVGTVVEYECRPGYRREPSLSPKLTCLQNLKWSTAVEFCKKKSCPNPGEIRNGQIDVPGGILFGATISFSCNTGYKLIGKTSSFCLISGSSVQWSDKLPICEKVLCTPPPKIKNGKHTFSEVEVFEYLDAVTYSCDPAPGPDPFSLIGESTIYCGDNSVWSRAAPECKVVKCRFPVVENGKQISGFGKKFYYKATVMFECDKGFYLDGSDTIVCDSNSTWDPPVPKCLKVL | C4b CFA: Time (min.) for 50% cleavage of C4B α′-chain [1]: 5.5 min; Relative C4b CFA [1]: 1.7; C3b CFA: Time (min.) for 50% cleavage of C3B α′-chain [2]: 17.5 min; Relative C3b CFA [2]: 0.25
0.0024 µM and 0.0021 µM | – | – | – | D2D3M3M4 (DAF-MCP chimera) (other) CEVPTRLNSASLKQPYITQNYFPVGTVVEYECRPGYRREPSLSPKLTCLQNLKWSTAVEFCKKKSCPNPGEIRNGQIDVPGGILFGATISFSCNTGYKLFGSTSSFCLISGSSVQWSDPLPECREIYCTPPPKIKNGKHTFSEVEVFEYLDAVTYSCDPAPGPDPFSLIGESTIYCGDNSVWSRAAPECKVVKCRFPVVENGKQISGFGKKFYYKATVMFECDKGFYLDGSDTIVCDSNSTWDPPVPKCLKVL | –
